The text below walks through data of patent US20210332123A1 (SUZHOU KANOVA BIOPHARMACEUTICAL, published 2021).

One may read the EC50 as the midpoint of the concentration-response curve. High values mean weaker potency, low ones greater potency.

Substitutions are numbered along the chain they refer to.

Assay [1] addresses T1, human IL-25 (human, UniProt Q9H293 33-177).
T1 sequence (looked up): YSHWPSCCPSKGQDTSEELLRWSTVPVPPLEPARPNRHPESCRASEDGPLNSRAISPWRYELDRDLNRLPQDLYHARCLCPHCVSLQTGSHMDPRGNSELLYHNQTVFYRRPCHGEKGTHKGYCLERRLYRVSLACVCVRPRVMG
In words: cell-based or functional assay.

The target of assay [2] is T1, human IL-25. In words: ELISA, plate coated with 2 µg/ml human IL-17E (IL-25). As to the method: (§1) MaxiSorp 96-well plates (NUNC #449824, www.thermofisher.com) were coated with 2 μg/ml human IL-17A (Cell Signaling #89285F, www.cellsignal.com), human IL-17F (Cell Signaling #8906LC, www.cellsignal.com), human IL-17B (Peprotech #200-28, www.peprotech.com), human IL-17C (R&D systems #1234-IL-025/CF, www.rndsystems.com), human IL-17D ((Peprotech #200-27, www.peprotech.com), human IL-17E (R&D systems #1258-IL-025/CF, www.rndsystems.com) in 1×PBS (50 μl/well) respectively. Plates were incubated at 4° C. overnight. Coating solution was removed and plates were washed once with 200 μl/well PBST (1×PBS with 0.05% tween-20). Then 200 μl/well blocking buffer (1×PBS with 0.05% tween-20, 3% BSA) was added and incubated at room temperature for 1 hour. Blocking buffer was removed and plates were washed three times with 200 μl/well PBST (1×PBS with 0.05% tween-20). The anti-IL-25 antibodies (produced in Example 2), were diluted to 10, 3.33, 1.11, 0.37, 0.123, 0.041, 0.0137, 0.0046, 0.0015, 0.00031, 0.000102, 0.000034 μg/ml by 1×PBS and added to the plates (50 μl/well). Plates were incubated at room temperature for 2 hours. Antibodies in the wells were removed and plates were washed three times with 200 μl/well PBST (1×PBS with 0.05% tween-20) each time. Goat anti-human IgG(H&L)-HRP secondary antibody (Jackson Immuno Research #109-035-088, www.jacksonimmuno.com) was diluted 1:5000 in 1×PBS and added to each well (50 μl/well). Plates were incubated at room temperature for 1 hour. Secondary antibody was removed and plates were washed seven times with 200 μl/well PBST (1×PBS with 0.05% tween-20) each time. 50 μl/well TMB (eBioscience #85-00-4201-56, www.ebioscience.com) was added and plates were incubated at room temperature for several minutes. Then 50 μl/well 2N H₂SO₄ was added to stop the reaction. Plates were read at 450 nm.
In general terms: In an ELISA, binding on a coated surface is turned into a signal by an enzyme label.

The target of assay [3] is T1, human IL-25. Briefly: ELISA, plate coated with human IL-25 (hIl25-HIS), OD450, Example 4; unit from the axis lg(nM) and paragraph 95. As to the method: MaxiSorp 96-well plates (NUNC #449824, www.thermofisher.com) were coated with 2 μg/ml human IL-25 (R&D systems #1258-IL-025/CF) in 1×PBS (50 μl/well). Plates were incubated at 4° C. overnight. Coating solution was removed and plates were washed once with 200 μl/well PBST (1×PBS with 0.05% tween-20). Then 200 μl/well blocking buffer (1×PBS with 0.05% tween-20, 3% BSA) were added and incubated at room temperature for 1 hour. Blocking buffer was removed and plates were washed three times with 200 μl/well PBST (1×PBS with 0.05% tween-20). Anti-IL-25 antibodies (produced in Example 2) were diluted to 10, 3.33, 1.11, 0.37, 0.123, 0.041, 0.0137, 0.0046, 0.0015, 0.00031, 0.000102, 0.000034 μg/ml by 1×PBS and added to plates (50 μl/well). Plates were incubated at room temperature for 2 hours. Antibodies in the wells were removed and plates were washed three times with 200 μl/well PBST (1×PBS with 0.05% tween-20). Goat anti-human IgG (H&L)-HRP secondary antibody (Jackson Immuno Research #109-035-088, www.jacksonimmuno.com) was diluted 1:5000 in 1×PBS and added to each well (50 μl/well). Plates were incubated at room temperature for 1 hour. Secondary antibody was removed and plates were washed seven times with 200 μl/well PBST (1×PBS with 0.05% tween-20) each time. 50 μl/well TMB (eBioscience #85-00-4201-56, www.ebioscience.com) was added and plates were incubated at room temperature for several minutes. Then 50 μl/well 2N H₂SO₄ was added to stop the reaction. Optical density was measured at 450 nm in relation to human IL-25 binding.

The target of assay [4] is T2, human IL-17A (human, UniProt Q16552 24-155, limits assumed).
T2 sequence (looked up): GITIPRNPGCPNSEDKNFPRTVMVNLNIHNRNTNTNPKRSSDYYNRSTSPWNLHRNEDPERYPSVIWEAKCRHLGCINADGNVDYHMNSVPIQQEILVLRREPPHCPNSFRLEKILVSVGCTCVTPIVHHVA
In words: ELISA, plate coated with 2 µg/ml cytokine. On the procedure:
as §1

In a further assay the target is T3, human IL-17D (human, UniProt Q8TAD2 18-202, limits assumed).
T3 sequence (looked up): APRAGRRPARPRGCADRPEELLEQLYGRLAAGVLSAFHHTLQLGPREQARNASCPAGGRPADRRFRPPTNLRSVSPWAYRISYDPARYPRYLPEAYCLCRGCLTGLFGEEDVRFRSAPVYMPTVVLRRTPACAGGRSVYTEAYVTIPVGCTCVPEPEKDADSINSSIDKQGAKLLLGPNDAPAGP
Briefly: ELISA (FIG. 4). On the procedure: as §1

In assay [5] the target is T2, human IL-17A. In words: ELISA (FIG. 4). On the procedure:
as §1

A further assay addresses T4, human IL-17B (human, UniProt Q9UHF5 21-180).
T4 sequence (looked up): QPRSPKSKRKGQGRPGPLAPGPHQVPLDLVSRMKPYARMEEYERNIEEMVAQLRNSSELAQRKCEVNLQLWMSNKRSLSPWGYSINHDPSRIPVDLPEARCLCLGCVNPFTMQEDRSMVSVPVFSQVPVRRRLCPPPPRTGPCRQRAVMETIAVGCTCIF
In words: ELISA (FIG. 4). On the procedure:
as §1

The target of a further assay is T5, human IL-17F (human, UniProt Q96PD4 31-163).
T5 sequence (looked up): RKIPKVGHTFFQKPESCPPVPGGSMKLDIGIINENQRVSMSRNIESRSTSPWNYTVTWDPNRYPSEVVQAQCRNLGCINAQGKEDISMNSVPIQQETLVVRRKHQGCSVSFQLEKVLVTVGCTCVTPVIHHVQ
In words: ELISA (FIG. 4). On the procedure: as §1

B1: VH1-1 + VL2-1 (humanized anti-IL-25 antibody formed by VH1-1 and VL2-1) (antibody, V domains shown)
VH: QVTLKESGPTLVKPTQTLTLTCTFSGFSLSTSGMGLGWIRQPPGKALEWLAHIWWDDVKHYKPALKSRLTITKDTSKNQVVLTMTNVDPVDTATYYCARMGQLHYYGYDYAMDYWGQGTLVTVSS
VL: DIQLTQSPSFLSASVGDRVTITCSASSSVSYMYWYQQKPGKAPKPLIYRTSNLASGVPSRFSGSGSGTEYTLTISSMQPEDFATYYCQLYHSYPPTWTFGQGTKLEIK
As to B1, in the assay with human IL-25 [1], the “IC50, CXCL1/GROalpha production of HT-29 cells stimulated by human IL-25 [A]” value came to 7.23 nM. For the same molecule, the EC50 with human IL-25 [2] was 0.15 nM; in the assay with human IL-25 [3], 0.154 nM. For the same molecule, the binding result in the assay with human IL-17A [4] was “no binding (tested: 10 µg/ml)”.

B2: VH2-1 + VL1-2 (humanized anti-IL-25 antibody formed by VH2-1 and VL1-2) (antibody, V domains shown)
VH: B1 VH with K5R, T10A, V12L, T72S, M84I
VL: EIVLTQSPATLSASPGERVTISCSASSSVSYMYWYQQKPGQAPRPLIYRTSNLASGVPARFSGSGSGTDYTLTISSMEPEDFATYYCQLYHSYPPTWTFGQGTKLEIK
Regarding B2, the EC50 in the assay with human IL-25 [2] and with human IL-25 [3] was 0.196 nM throughout. Also, in the assay with human IL-17A [4], the binding result is reported as “no binding (tested: 10 µg/ml)”.

B3: VH1-1 + VL1-2 (humanized anti-IL-25 antibody formed by VH1-1 and VL1-2) (antibody, V domains shown)
VH: B1 VH
VL: B2 VL
notes: Captured by anti-human Fc gamma antibody in SPR
Regarding B3, the “IC50, CXCL1/GROalpha production of HT-29 cells stimulated by human IL-25 [A]” value with human IL-25 [1] amounted to 11.4 nM. The EC50 with human IL-25 [2] is 0.25 nM; with human IL-25 [3] it was 0.252 nM. Moreover, the binding result with human IL-17A [4] is recorded as “no binding (tested: 10 µg/ml)”.

B4: VH2-1 + VL2-1 (humanized anti-IL-25 antibody formed by VH2-1 and VL2-1) (antibody, V domains shown)
VH: B1 VH with K5R, T10A, V12L, T72S, M84I
VL: B1 VL
In the case of B4, the EC50 in the assay with human IL-25 [2] and with human IL-25 [3] was 0.187 nM each time. Further, the binding result with human IL-17A [4] was “no binding (tested: 10 µg/ml)”.

B5: murine anti-IL-25 monoclonal antibody 18H3 (antibody, V domains shown)
VH: QVTLKESGPGILQPSQTLSLTCSFSGFSLSTSGMGLGWIRQPSGKGLEWLAHIWWDDVKHYKPALKSRLTISKDISSSQVFLTIASVDTADTATYYCARMGQLHYYGYDYAMDYWGQGTSVTVSS
VL: QIVLTQSPAIMSASPGEKVTISCSASSSVSYMYWYQQKPGSSPKPWIYRTSNLASGVPARFSGSGSGTSYSLTISSMEAEDAATYYCQLYHSYPPTWTFGGGTKLEIK
notes: also called parental antibody; parental murine mAb
On to B5, for which the EC50 in the assay with human IL-25 [3] stood at 0.187 nM. Besides, the binding result with human IL-17D, in the assay with human IL-17A [5], with human IL-17B and with human IL-17F was “no binding” in each case.
